US20230364254A1, “METHODS FOR TREATING CANCERS WITH ANTIBODY DRUG CONJUGATES (ADC) THAT BIND TO 191P4D12 PROTEINS” (priority 2020, published 2023)

Biological target: T1, 191P4D12 (Homo sapiens, UniProt Q96NY8)
T1 sequence (Q96NY8 32-510): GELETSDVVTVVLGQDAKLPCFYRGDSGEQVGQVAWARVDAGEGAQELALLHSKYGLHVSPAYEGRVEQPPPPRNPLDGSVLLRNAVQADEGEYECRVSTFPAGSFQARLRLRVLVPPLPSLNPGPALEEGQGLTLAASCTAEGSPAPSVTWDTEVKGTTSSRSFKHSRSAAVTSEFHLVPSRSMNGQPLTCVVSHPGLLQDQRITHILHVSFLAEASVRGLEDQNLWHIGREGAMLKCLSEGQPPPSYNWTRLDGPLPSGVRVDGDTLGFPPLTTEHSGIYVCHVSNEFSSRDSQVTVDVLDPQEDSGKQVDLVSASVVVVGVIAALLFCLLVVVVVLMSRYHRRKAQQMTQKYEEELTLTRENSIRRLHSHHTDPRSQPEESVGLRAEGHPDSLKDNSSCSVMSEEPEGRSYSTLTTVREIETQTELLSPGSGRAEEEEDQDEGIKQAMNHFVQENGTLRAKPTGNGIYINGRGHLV
Experiment: Analytical and biological characterization studies: comparability of enfortumab vedotin and AGS-22M6E
Description: As described above and in U.S. Pat. No. 8,637,642, AGS-22M6E is an ADC derived from a murine hybridoma cell line. Enfortumab vedotin is a Chinese hamster ovary (CHO) cell line-derived equivalent of AGS-22M6E ADC and is an exemplary product used for human treatment. Enfortumab vedotin has the same amino acid sequence, linker and cytotoxic drug as AGS-22M6E. The comparability between enfortumab vedotin and AGS-22M6E was confirmed through extensive analytical and biological characterization studies, such as binding affinity to 191P4D12, in vitro cytotoxicity, and in vivo antitumor activity.

In the case of “enfortumab vedotin: Nectin-4 directed ADC: fully human anti-nectin-4 IgG1 kappa antibody (AGS-22C3) conjugated to MMAE via protease-cleavable maleimidocaproyl valine-citrulline linker”, the “comparability between enfortumab vedotin and AGS-22M6E (binding affinity to 191P4D12, in vitro cytotoxicity, in vivo antitumor activity)” value is reported as “confirmed”.
